According to patent publication US10501748B2, “Methods and compositions for integration of an exogenous sequence within the genome of plants” (Dow AgroSciences LLC, priority 2013, dated 2019):

B1: pDAS000132: plasmid donor DNA, 750-bp homology arms, A-genome, introduces S653N mutation; SEQ ID NO:65 (nucleic acid)
DNA: TGCAAGCAGGTCCAAGATTGTGCACATTGACATTGACCCAGCTGAGATTGGCAAGAACAAGCAGCCACATGTCTCCATTTGTGCAGATGTTAAGCTTGCTTTACAGGGGTTGAATGCTCTATTAAATGGGAGCAAAGCACAACAGGGTCTGGATTTTGGTCCATGGCACAAGGAGTTGGATCAGCAGAAGAGGGAGTTTCCTCTAGGATTCAAGACTTTTGGCGAGGCCATCCCGCCGCAATATGCTATCCAGGTACTGGATGAGCTGACAAAAGGGGAGGCGATCATTGCTACTGGTGTTGGGCAGCACCAGATGTGGGCGGCTCAGTATTACACTTACAAGCGGCCACGGCAGTGGCTGTCTTCGTCTGGTTGGGGGCAATGGGATTTGGGTTACCAGCTGCAGCTGGCGCTGCTGTGGCCAACCCAGGTGTTACAGTTGTTGACATTGATGGAGATGGTAGTTTCCTCATGAACATTCAGGAGTTGGCATTGATCCGTATTGAGAACCTCCCTGTGAAGGTGATGATATTGAACAACCAGCATCTGGGAATGGTGGTGCAATGGGAGGATAGGTTTTACAAGGCCAATCGGGCGCACACATACCTTGGCAACCCAGAAAATGAGAGTGAGATATATCCAGATTTTGTGACGATTGCTAAAGGATTCAACGTTCCGGCAGTTCGTGTGACGAAGAAGAGCGAAGTCACTGCAGCAATCAAGAAGATGCTTGAGACCCCAGGGCCATACTTGTTGGATATCATCGTCCCGCATCAGGAGCACGTGCTGCCTATGATCCCAAATGGTGGTGCTTTCAAGGACATGATCATGGAGGGTGATGGCAGGACCTCGTACTGAAATTTCGACCTACAAGACCTACAAGTGTGACATGCGCAATCAGCATGGTGCCCGCGTGTTGTATCAACTACTAGGGGTTCAACTGTGAACCATGCGTTTTCTAGTTTGCTTGTTTCATTCATATAAGCTTGTGTTACTTAGTTCCGAACCCTGTAGCTTTGTAGTCTATGCTCTCTTTTGTAGGGATGTGCTGTCATAAGATATCATGCAAGTTTCTTGTCCTACATATCAATAATAAGTACTTCCATGGAATAATTCTCAGTTCTGTTTTGAATTTTGCATCTTCTCACAAACAGTGTGCTGGTTCCTTTCTGTTACTTTACATGTCTGCCGTGTCCGGTTATGACATAATGACCGATGGAGGGTGGTCAGCAGGTTTTAGACGGGGAGTTGAAACTTTTTTTTGGGGGGAAGAAATCTGAATACAGTTGGGAGGAAAGATAAAAGCATATACCTTGATTAATTTATTGAGCCCAATATCCAGCCTAATTTATCAAGCAATAGGCAGTGTAGGGTGTTGGC
modifications: pDAS000132
B2: pDAS000433: donor molecule backbone for first transgene stack, S653N; SEQ ID NO:71 (nucleic acid)
DNA: CCACTCTTGCCCTACACGACACTGAAGACCTTATGATTCCAAACGGCGGCGCCTTCAAGGACATGATCATGGAGGGTGATGGCAGGACCTCGTACTGAAATTTCGACCTACAAGACCTACAAGTGTGACATGCGCAATCAGCATGGTGCCCGCGTGTTGTATCAACTACTAGGGGTTCAACTGTGAACCATGCGTTTTCTAGTTTGCTTGTTTCATTCATATAAGCTTGTGTTACTTAGTTCCGAACCCTGTAGCTTTGTAGTCTATGCTCTCTTTTGTAGGGATGTGCTGTCATAAGATATCATGCAAGTTTCTTGTCCTACATATCAATAATAAGTACTTCCATGGAATAATTCTCAGTTCTGTTTTGAATTTTGCATCTTCTCACAAACAGTGTGCTGGTTCCTTTCTGTTCGCTGACGCCCTCCTCGACTCCATCCCCATGGTCGCCATCACGGGCCAGGTCCCCCGCCGCATGATCGGTAGCGACTTCGTGGGCGAGGAAAGCCTTTCGTCCAAGGTGGTCCCTCCTCGCAATCTTGTTGGATGGTGAATATTATAAAAGCCTGCCCTTCTCGCGGGTAAGACTCCCGCCCATCCAGGATGAGGATGACCAGCCTTTTGCAGTTTATCCACTAGGGACAGGATTGCATCCTGCCGAAACCCTGCCAAGCTTGAGGTAGCCTCCAATTTGACGGTGCCGCCAGCGACGCCGTCTGGAACTGTCCTTTTTGAGGACCACTCCGTTTGTCTAGAGGTACCTGGAGATCATGACATTAAGGATGACCAGTTCGTAAAGGTCCTGCGGTGTCTATTGCTTTTCATAGGTTAATAAGTGTTTGCTAGACTGTGGTGAAAGGCCAAGACTCCCGCCCATCTCTCTATGCCCGGGACAAGTGCCACCCCACAGTGGGGCAGGATGAGGATGACCAAAGACTCCCGCCCATCTCACTAGGGACAGGATTGGCCTTTTGCAGTTTATCTCTATGCCCGGGACAAGTGTATCCGAAGTAAATAAAACCATCGGACTCTCGTATAAGACTGTCGACTCGACCGGCCGACGCATAGGTTCATTTGAAGCTGCTATTCTATTTAAATTGAAACTCGGACGGTAGCAGTGTGGTATGAGGTCTTCAGCACACTCGGTAACTCCAGTCAC
modifications: pDAS000433

Columns and labels:
[1] = test system: endogenous AHAS genes (three homoeologous copies); experiment: transient assay of ZFN-mediated HR-directed AHAS editing in biolistically transfected scutella of immature zygotic embryos; assay type: cell-based, Triticum aestivum; conditions: for Editing Frequency (ppm): HR-directed, scutella
Description: Donor DNA designs were based on a plasmid DNA vector containing 750-bp homology arms (i.e. sequence identical to the endogenous AHAS gene) flanking each side of the target cleavage site for ZFNs 29732 and 29730. A plasmid DNA vector was designed for each of the three wheat sub-genomes: pDAS000132 (FIG. 3), pDAS000133 (FIG. 4) and pDAS000134 (FIG. 5) were designed to the A-, B- and D-genome, respectively (SEQ ID NO:65, SEQ ID NO:66, and SEQ ID NO:67). Each plasmid DNA vector was designed to introduce an S653N ([…]) mutation as a genomic modification conferring tolerance to imidazolinone class herbicides at the target homoeologous copy of the endogenous AHAS gene by ZFN-mediated HR-directed DNA repair. Two additional plasmid DNA constructs were also designed to target the D-genome. The first plasmid DNA, pDAS000135 (SEQ ID NO: 68) (FIG. 6), was identical to pDAS000134 except that it contained two additional (synonymous) single nucleotide point mutations, one each located at 15-bp upstream and downstream of the S653N mutation.
Seedlings of the donor wheat line were grown in an environment controlled growth room maintained at 18/16° C. (day/night) and a 16/8 hour (day/night) photoperiod with lighting provided at […]. Wheat spikes were collected at 12-14 days post-anthesis and were surface sterilized by soaking for 1 min in 70% (v/v) ethanol. The spikes were threshed and the immature seeds were sterilized for 15 min in 17% (v/v) bleach with gentle shaking, followed by rinsing at least three times with sterile distilled water. The embryos were aseptically isolated from the immature seeds under a dissecting microscope. The embryonic axis was removed using a sharp scalpel and discarded. The scutella were placed into a 9 cm PETRI™ dish containing osmotic MS (E3 maltose) medium, with the uncut scutellum oriented upwards. A total of 20 scutella were plated onto each 9 cm PETRI™ dish. The prepared embryos were pre-cultured in the dark at 26° C. for a minimum of 4 h before transfection using biolistics-mediated DNA delivery.
Gold particles for biolistic-mediated DNA delivery were prepared by adding 40 mg of 0.6 micron colloidal gold particles (BioRad) to 1 mL of sterile water in a 1.5 mL microtube. The gold particles were resuspended by vortexing for 5 min. To prepare sufficient material for 10 bombardments, a 50 μL aliquot of the gold particle suspension was transferred to a 1.5 mL microtube containing 5 μg of DNA resuspended in 5 μL of sterile water. Following thorough mixing by vortexing, 50 μL of 2.5 M CaCl2 and 20 μL of 0.1 M spermidine were added to the microtube, with thorough mixing after the addition of each reagent. The DNA-coated gold particles were pelleted by centrifugation for 1 min at maximum speed in a bench top microfuge. The supernatant was removed and 1 mL of 100% ethanol was added to wash and resuspend the gold particles. The gold particles were pelleted by centrifugation, as described above, and the supernatant discarded. The DNA-coated gold particles were resuspended in 110 μL of 100% ethanol and maintained on ice. Following a brief vortex, 10 μL of the gold particle solution was placed centrally onto a macro-carrier membrane and allowed to air dry.
The PDS-1000/HE PARTICLE GUN DELIVERY SYSTEM™ (BioRad) was used to transfect the scutella of immature zygotic wheat embryos by biolistic-mediated DNA delivery. Delivery of the DNA-coated gold particles was performed using the following settings: gap 2.5 cm, stopping plate aperture 0.8 cm, target distance 6.0 cm, vacuum 91.4-94.8 kPa, vacuum flow rate 5.0 and vent flow rate 4.5. The scutella of immature zygotic wheat embryos were bombarded using a 900 psi rupture disc. Each PETRI™ dish containing 20 scutella was bombarded once. The bombarded scutella were incubated at 26° C. in the dark for 16 h before being transferred onto medium for callus induction. The scutella were cultured on callus induction medium in the dark at 26° C. for 7 d. […]

[2] = test system: endogenous AHAS locus in scutella of cv. Bobwhite MPB26RH; experiment: biolistics-mediated transformation for first sequential transgene stack with IMAZAMOX or BASTA selection; assay type: cell-based, Triticum aestivum; conditions: donor with pDAB109350 at 5:1
Description: A total of 55,468 scutella of immature zygotic embryos from the donor wheat line cv. Bobwhite MPB26RH were prepared for biolistics-mediated DNA delivery, as described previously. DNA-coated gold particles were prepared with the formulations as described above. For transfections performed using the linear double-stranded donor DNA derived from “QA_pDAS000434” or pDAS000433, the donor DNA was mixed at a 5:1 molar ratio with plasmid DNA for pDAB109350 (encoding ZFNs 29732 and 29730). Transfections performed using pDAS000143 were performed using gold particles that were coated only with plasmid DNA for pDAS000143.
Biolistic-mediated transfections were performed as described previously. Following bombardment, the transfected scutella were incubated at 26° C. in the dark for 16 h before being transferred onto medium for callus induction.
Two different chemical selection strategies were used to enrich for regenerated wheat plants with an integrated linear double-stranded donor molecule. […] The purpose of the second chemical selection strategy was to allow the frequency of precise (on-target) versus random (off-target) donor integration to be quantified, as well as the frequency of perfect and imperfect integration at the endogenous AHAS loci. […]

Row | Molecule | Editing Frequency (ppm) ([1]; wheat sub-genome A, ZFN 29732-2A-29730, donor-to-ZFN molar ratio 5:1) | Editing Frequency (ppm) ([1]; wheat sub-genome A, ZFN 29732-2A-29730, donor-to-ZFN molar ratio 10:1) | Editing Frequency (ppm) ([1]; wheat sub-genome A, ZFN n/a (donor only), average of three biological replicates) | Editing Frequency (ppm) ([1]; wheat sub-genome B, ZFN 29732-2A-29730, ratio 5:1) | Editing Frequency (ppm) ([1]; wheat sub-genome B, ZFN 29732-2A-29730, ratio 10:1) | Editing Frequency (ppm) ([1]; wheat sub-genome B, ZFN n/a (donor only)) | Editing Frequency (ppm) ([1]; wheat sub-genome D, ZFN 29732-2A-29730, ratio 5:1) | Editing Frequency (ppm) ([1]; wheat sub-genome D, ZFN 29732-2A-29730, ratio 10:1) | Editing Frequency (ppm) ([1]; wheat sub-genome D, ZFN n/a (donor only)) | molecular evidence for ZFN-mediated HR-directed editing in all three homoeologous copies of endogenous AHAS ([1]; co-transfected with pDAB109350, scutella (pDAS000131 and pDAS000134 also SEC protoplasts)) | wheat plants recovered ([2]; BASTA selection) | wheat plants with AHAS herbicide tolerance phenotype recovered ([2]; IMAZAMOX selection)
1 | B1 | 2,353 ppm | 1,800 ppm | 5 ppm | 42 ppm | 30 ppm | 0 ppm | 110 ppm | 61 ppm | 0 ppm | strong molecular evidence |  | 
2 | B2 |  |  |  |  |  |  |  |  |  |  | 1,652 | No wheat plants
